From the nanobody polyreactivity screen of Harvey et al. (2022)

Assay: yeast display, Sf9 membrane polyspecificity reagent, FACS + sequencing; frameworks hold sequencing errors
Procedure, shortened: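 Sorting gates, low and high (top ~1%), were placed on anti-HA fluorescence to track expression and on streptavidin fluorescence to track reagent binding. A clone's polyreactivity label is taken from the gate it came out of. The reagent was 10% biotinylated, detergent-solubilized Sf9 membrane, applied for 1 hour at 4 °C to galactose-induced yeast display cells.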

| Sequence | polyreactivity (PSR sort gate) |
| --- | --- |
| QFQLVESVGGLVQAGGSLRLSCAASGFTFTAYAMGWYRQAPGTERELVAAISSGGSTYYADSVKGRFTISRDNAKNTVYLQMNSLKPEDTAVYYCAAVGVYTVKREYWGQGTQVTVSS | low polyreactivity |
| QVQLVESGGRLVQAGGSLRLSCAASGLTFSGYAMGWYRQAPGKERELVAAISGGGGSTYYADSVKGRFTISRDNAKNTVYLQMNSLKPEDTAVYYCAARPRWYTYTRQEYDYWGQGTQVTVSS | high polyreactivity |
| QVQLVESGGGLVQAGGSLRLSCAASGSNFNNNAMGWYRQAPGKERELVASISLSAGSTYYADSVKGRFTISRDNAKNTVYLQMNSLKPEDTAVYYCAAEVGYWGYQISGDYWGQGTQVTVSS | low polyreactivity |
| QVHLVESGGGLVQAGGSIRLSCAASGRTFAYNVKGWYIQAPGKVREVVAGISFGAGSTYYADSVKGRFTISRDNAKNTVYLQMNSLKPEDTAVYYCATGRRGTRYPRGYDYWGQGTQVTVSS | high polyreactivity |
| QVQLVESGGGLVQAGGSLRLSCAASGSTFRIYAMGWYRQAPGKERELVARISWNGGRTYYADSVKGRFTISRDNAKNTVYLQMNSLKTEDTAVYYCNALVPPGYDYWGQGTQVTVSS | high polyreactivity |
| QVQLVESGGGLVQAGGSLRLSCAASVSTYIYYAMGWYRQAPGKERELVAAISQSGGSTYYADSVKGRFTISRDNAKNTVYLQMNSLKPEDTAVYYCAARLRHLGLGRYGFDYWGQGTQVTVSS | high polyreactivity |
| QVQLVESGGGLVQAGGSLRLSCAASGFTFHRYDMVWYRQAPGKERELVAGITRRSGSTFYADSVKGRFTISRDNAKNTVYLQMNSLKPEDTAVYYCAATVPGMHWIYDYWGQGTQVTVSS | high polyreactivity |
| QVQLLESGRGLVQAGGSLRLSCAASGRTFVGYAMVWYRKAHGKERELVAGITASGGTTYYADSVKGRFTISRDNAKNTVYLQMNSLKPEDTAVYYCATTTTRYRYKKNYYWGQGIQVTVSS | high polyreactivity |
| QVQLVESGGGLVQAGGSLRLSCAASGRTSWVYAMGWYRQAPGKERELVASIRKRTVVYADSVKGRFTISRDNAKNTVYLQMNSLKPEDTAVYYCNADTTFYGYRTYRPENYWGQGTQVTVSS | high polyreactivity |
| QVQLVESGGGLVQAGGSLRLSCAGSGSTFQNNAMGWYSQAPGKERELVAAISRSSGRRYYADSVKGRFTISRDHAKNTVYCQMNSLKPEDTAGYYCAASLGGYITRYNYWGQGTQVTVSS | high polyreactivity |
| QVQLVESGGGLVQAGGSLRLSCAASGSTFNRYGMGWYIQAPGKERELVAAISGSNGGTYYADSVKGRFTISRDNAKNTVYLQMNSLKPEDTAVYFCAKVRAYTRLGLTVSMDYWGQGTKVTVSS | high polyreactivity |
| QVQLVESGGGLVQAGGSLGLSCAASGFTFYFYAMGWYRQAPGKERELVAANSRGTSTYYADSVKGRFTISRDNAKKTVYLQMNRLKPEDTAVYYCAARGLWPYDDWGQGTQVTVSS | low polyreactivity |
| QVQLVESGGGLVQAGGSLRLSCAASGSIFALYTMGWYRQAPGKEREMVAAISRRGGNKYYADSVKGRFTISRDNAKNTVYLQMNRLKPEDTAVYYCNADRLRSTHDYWGQGTQVSVSS | high polyreactivity |
| QVQLVESGGGLVQAGGSLRLSCAASGRTLSFYAMGWYRQAPGKERELVASISSGGRTYYADSVKGRFTISRDNAKNTVYLQMNSLKPEDTAVYYCAVGYRSRYRSRDDYWGQGTQVTVSS | high polyreactivity |
| QVQLVESGGGLVQAGGSLRLSCAASGSIFYINAMGWYRQAPGKERELVAAITSDGSTYYADSVKGRFTISRDNAKNTVYLQMNSLKPEDTAVYYCAADLTSDQYLYYWYWFYSWGQGTQVTVSS | low polyreactivity |
| QVQLVESGGGLVQAGGSLRLICAASGSIFPSYAMGWYRQAPGKERELVAAISVSGGRTYYADSVKGRFTISRDNAKYSVYLQMNSLKPEDTAVYYCATVGKQKYDAKYGYWGQGTQVTVSS | high polyreactivity |
| QVQLVESGGGLVQAGGSLRLSCAASGFTFYTYAMGLYRQAPGKERELVAAITSSGGSTYYADSVKGRFTISRDNAKNTVYLQMKSLKPEDTAVYYCNAVSYYLGDDYWGQGTQVTVSS | high polyreactivity |
| QVQLVESGGGLVQAGGSLRLSCAASGSTVFKNTMGWYRQAPGKEREFVAAIRWSTSRTYYADSVKGRFTISRDNAKNTVYLQMNSLKPEDTAVSYCNAGTSLSRRYPEDYYWGQGTLVTVSS | high polyreactivity |
| QVQLVESGGGLVQAGGSLRLSCDASGSIIIGNSMGWYRQAPGKERELVAVINGSDGTTYYADSVKGRFTISRDNAKNTVYLQMNSLKPEDTAVYYCNADFIDPSVYDYNYWGQGTQVTVSS | low polyreactivity |
| EDQLGESGGGLVQAGGSLRLSCAASGRTFYSYARGWSRQAPVKERELVAGINGGGSTYYADSVKGRFTISRDNAKNTVYLQMNSLKPEDSPVYYCAARRYDIRYYYVTYRPPKMYYWGQGTQVTVSS | high polyreactivity |
| QVQLVESGGGLVQAGGSLRLSCAASGFTFRKYAMGWYRQAPGKERELVAGISWSGGTTYYADSVKGRFTISRDNAKNTVYLQMNSLKPEDTAVYYCNAKRVQVFAGYSYDYWGQGTQVTVSS | high polyreactivity |
| QVQLVESGGGLVQAGGSLRLSCAASGSIFYANAMGWYSQAPGKERELVAVISSGGGTYADSVKGRFTISRDNAKNTVYLQMNSLKPEDTAVYYCAADYTRESSMYYWGQGTQVTVSS | low polyreactivity |

| Sequence | polyreactivity (PSR sort gate) |
| --- | --- |
| QVQLVESGGRLVQAGGSLRLSCAASGFTFGAYAMGWYRQAPGKERELVATIRYSGDSTYYADSVKGRFTISRDNAKNTVYLQMNSLKPEDTAVYYCAADVYGGIGYDYWGQGTQVTVSS | low polyreactivity |
| QVQLVESGGGLVQAGGSLRLSCAASGNIIAYYAMGWSRQPPGKDRELVAAITDSGGNTFYADSVKGRFTISRDNAKNSVFLQMNSLKPEDTAVYYCAADPDCWGFVYPRYDYWGQGTQVTVSS | low polyreactivity |
| QVQLVESGGGLVQEGGSLRLSCAASGSTFRRYAMGWYRQAPGKERELVASISRSGGSTYYADSVKGRFTISRDNAKNTVYLQMNSLKSEDTAVYYCSKKPYKSAYDYSTAYDYWGQGTLVTVSS | high polyreactivity |
| QVQLVESGGGLVQAGGSLRLSCAASGSIYRYAMGWYRQAPGKEREFVAAITWNGGSTYYADSVKGRFTISRDNAKNTVYLQMNSLKPEDTAVYSCAAYEKRLGYDYWGQGTQVTVSS | high polyreactivity |
| QVQLVESGGGLVQAGGSLRISCAASGFSFVWYAMGWYRQAPGKERELVAAINWSGGHTYYADSVKGRFTISRDNAKNTVYLQMNSQKPVETAVYYCNADSLWYWFYPYNYWGQGTQVTVSS | low polyreactivity |
| QGQLVESGGGLVQAGGSLRLTCAASGLTFWWYAMGWYRQAPGKERELVAAISSSGGSTYYADSVKGRFTISRDNAKNTVYLQMNSLKPEDTAVYYCAADGGFEYEYDYWGQGTQVTVTS | low polyreactivity |
| QVQLVESGGGLVQAGGSLRLSCAASGSTFLYNAIGWYRQAPGKERELVAAISSGGRTKYADSVKGRFTISRDTAKNTVYLQMNSLKPEDTAVYYCAAESYTGKYCWVWKWYDYWGQGTQVTVSS | low polyreactivity |
| QVQLEESGGGLVQAGGSLRLSCAASGSIFGQYAMGWYRQAPGKERELVAAISTRGGSTRYADSVKGRFTISRDNAKNTVYLQMNSLTPEGTAVYYCAARVPYIRHLAVDYWGQGTQVTVSS | high polyreactivity |
| QVQLVDSGGGLVQAGGSLRLSCAASGSTFRRYAMGWYRQAPGKERELVAAITTADITNYADSVKGRFTISRDNAKNTVYLQMNSLKPEDTAVYYCAAPVAYRGSRNFIYRYNYWGQGTQVTVSS | high polyreactivity |
| QVQLVESGGGLVQAGGSLRLSCAASGIIFGRYTMGWYRQAPGKERELVAAITSSGITYYADSVKGRFTISRDNAKNTVYLQMNSLKPEDSAVYYCNADYSIPGYYWPYDYWGQGTQVTVSS | low polyreactivity |
| QVQLVESGGGLVQAGGRLRLICAASGFNFKFYALGWYRQAPGKERELVAAITASSGRTYYADSVKGRFTISRDNAKNTVFLQMNSLKPEDTAVYYCAALGITYGRYDYWGQGTQVTVSS | high polyreactivity |
| QVQLVESGGGLVQAGGSLRLSCAASGRTFRYYAMGWYRQAPGKERELVAAISSGGRTNYADSVKGRFTISRDNAKNTVYLQMNSLKPEDTAVYYCAARNTRFWYQNNLYDYWGQGTQVTVSS | high polyreactivity |
| QVQLVESGGGLVQAGGSLRLSCAASGSIFSGYTMGWYRQAPGKERELVATISSSGGRTRYADSVKGRFTISRDNAKNTVYLQMNSLKPEDTAVYYCAAAYYVKYNSEYEYWGQGTQVTVSS | high polyreactivity |
| QVHLVESGGGLVQAGGSLRLSCAATGRIFVPYVMGWYRQAPGKERELVASISDSDTSTYYADSVKGRFTISRDNAKNTVYLQMNSLKPEDNAVYYCNVDYWGQGTQVTVSS | low polyreactivity |
| QVQLVESGGGLVQAGGSLRLSCAASGRTFRVYAMGWYRQAPGKERELVASITRGGGTYADSVKGRFTISRDNAKNTVSLQMNSLKPEDTAVYYCNADSRRRRIHYDYWGQGTQVTVSS | high polyreactivity |
| QVQLVESGGGLVQAGGSLRLSCDASGGIFFLYAMGWYRQAPGKERELVAAITNDGRTYYADSVKGRFTISRDNAKYTVYLQMNSLKPEDTAVYYCDAAALISVGDLVIYEDDYWGQGTQVTVSS | low polyreactivity |
| QVQLVESGGGLVQAGGSLRLSCAAWSIFYLNAMGWYRQAPGKERELVAAISSAGSTYYADSVKGRFTISRDNAKNTVYLQLNSLKPEDTAVYYCAAYWYDSPGVTEIWYDYWGQGTQVTVSS | low polyreactivity |
| QVQLVDSGGGLVQAGGSLRLSCAASGITFDHYAMGWSRQAPGKEREFVAAIDDIGGDTYYADSVKGRFTISRDNAKNTVYLQMNSLKPEATAVYYCAADYGYYSRFYYWGQGTQVTVSS | low polyreactivity |
| QVQLVESGVCLVQAGGSLRLSCAATGFTLSTNALGWYRQEPGKESELVAVISGGDSTSYADSVKGRFTISRDNAKNTVYLQMNSLKPEETAVYYCAKVYRRYTSGYDYWGQGTQVTVSS | high polyreactivity |
| QVQLVESGGGLVQAGGSLRLSCAASGITFSRNAMGWYRQAPGKERELVATITSGGSTNYADSVKGRFTISRDNAKNTVYLQMNSLKPEDTAGYYCNAVWNTFISGRSYDYWGQGTQVTVSS | low polyreactivity |
| QVQLVESGGGLVQAGGSLRLSCAASGRIVSHYAMGWYRQAPGKERELVAAISRSGSTYYADSVKGRFTISRDNAKNTVYLQMNSLKPEDTAVYYCATRLYTVGPYGYWGQGTQVTVSS | low polyreactivity |
